From the supplement of paper PMC12042874 come the findings set out here.

± gives the uncertainty stated by the source.

This data set can be described thus: amyloid nucleation score (Sup35N fusion, yeast selection) (log enrichment); library NNK1; higher = more nucleation; inactive = no reads after selection. The method, boiled down: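 Peptides of 20 random codons fused to Sup35N were expressed in psi-negative yeast, induced 24 hours with 100 μM copper sulfate, then grown 7 days at 30°C on medium lacking adenine and uracil. Input and output plasmid inserts were Illumina-sequenced. Nucleation score is the DiMSum log enrichment of output over input reads, centred on the mode score of non-aggregating sequences, excluding sequences with under 100 input reads. Random libraries had three technical output replicates.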

Substance CRCMLSLLRIRLGVSSARLG showed an amyloid nucleation score of 0.143 ± 0.49.

With TRKLFTFMLDRMYLMVGRRL, the amyloid nucleation score was -0.294 ± 0.6.

Take IAGRRPALYRVWNSRCSLLN: the amyloid nucleation score came out at 0.014 ± 0.49.

The substance EVIIIGRSIIVLGMGGTKFW had an amyloid nucleation score of 1.72 ± 0.24.

For NKSHAHLKVAMSLVCPFKSH, the amyloid nucleation score is 1.5 ± 0.44.

In the case of LKTRALASGWEAECADRGGV, the amyloid nucleation score was -0.056 ± 0.64.

MWCLGLDIFRIRVYRCAGGG showed an amyloid nucleation score of -0.348 ± 0.28.

As to KEDIVLACIGSVKHVRAQWR, the amyloid nucleation score came to 5.97 ± 0.081.

VLYSELLGFRKSIIIMVWTR registered an amyloid nucleation score of -0.015 ± 0.28.

The substance WINFMSQWDPLGRQYVWHIQ registered an amyloid nucleation score of 1.81 ± 0.36.

Consider RVNTETMITGESGMSIDELM, for which the amyloid nucleation score was 1.03 ± 0.76.

For the substance SMCLCVYIWIALYGWVMLIP, the amyloid nucleation score was determined as 0.217 ± 0.21.

As for TLESCGW, the amyloid nucleation score came out at 0.773 ± 0.22.

LYAWGVRYSVVMLFSYRGVH: the amyloid nucleation score was -0.026 ± 1.2.

HLRKVGYSIYLFSR came in with an amyloid nucleation score of 3.83 ± 0.057.

On to CFPRSRRRQRSFNLCVRESR, for which the amyloid nucleation score is 1.13 ± 0.57.

As for YLPIKPFIYANILWGFTVSC, the amyloid nucleation score is -0.025 ± 1.

KQNSKLFLIFIGNALGQVTV had an amyloid nucleation score of 5.09 ± 0.064.

As to QDQSGPVLASCIWYLCSETN, the amyloid nucleation score was 7.403 ± 0.052.

LFLIV yielded an amyloid nucleation score of -0.08 ± 0.24.

The substance DGTNSVRIASWLNIDEGAL registered an amyloid nucleation score of -0.225 ± 0.42.

Substance GFVILDSNPLRFNCFWVDAF yielded an amyloid nucleation score of 0.325 ± 0.29.

CRAGLVMSGWCRWFAQWMDS: the amyloid nucleation score is -0.551 ± 0.59.

HVVFTKMCSNTTET displayed an amyloid nucleation score of 0.026 ± 0.49.

In the case of HMLIFYSGLCKPSFVYYLLY, the amyloid nucleation score worked out at 1.04 ± 0.58.

Regarding LCSHAIFCSSCGRFVLMEAC, the amyloid nucleation score entry was “inactive”.

VGLLEAFMLRGDSRRCD registered an amyloid nucleation score of -1.25 ± 2.1.

Take VLGRRKMIQVNFNFKYLSWD: the amyloid nucleation score is 1.62 ± 0.45.

For LLWEPRKFFESNWLSIQSAK, the amyloid nucleation score is -0.668 ± 1.7.

LPSVESLHRTTSCVYF yielded an amyloid nucleation score of -0.561 ± 1.2.

The substance CFRHRYRQLGIMWWGLRLQL returned an amyloid nucleation score of -1.44 ± 2.4.

IGLFWSFVKKIEVIICVGML came in with an amyloid nucleation score of 0.665 ± 0.9.

For TASGVDIVRRGCPRLVMLVV, the amyloid nucleation score was -0.42 ± 0.43.

The substance KSQVVMRDVEPATNIV came in with an amyloid nucleation score of -0.153 ± 0.69.

The substance NSMIVAHKLDCACPASAKDR yielded an amyloid nucleation score of 4.94 ± 0.053.

As for VGCLMWYALCGLE, the amyloid nucleation score was found to be 0.347 ± 0.5.

As for TCVCQFIWG, the amyloid nucleation score is -0.086 ± 0.79.

The substance RCHTLFIVSLYRRVRNHMSC came in with an amyloid nucleation score of 0.558 ± 0.79.

In turn, FCNLYGKQTYLSGFGIHCVV gave an amyloid nucleation score of 0.127 ± 0.23.

Substance NFRNLSYCFQFPMFVARRLK yielded an amyloid nucleation score of 1.06 ± 0.67.

Consider FEHVSMWIVCFVKNLKYRIR, for which the amyloid nucleation score was -0.86 ± 0.86.

With VAVQRPIFIVMWPQNLCISA, the amyloid nucleation score was 3.69 ± 0.13.

KLSFK: the amyloid nucleation score is -0.227 ± 1.9.

For the substance LTLKTSNHFIYLSLLYIRVV, the amyloid nucleation score was -0.03 ± 0.3.

For NFSRIKYYGSYEVFIFAGNY, the amyloid nucleation score turned out to be 0.398 ± 0.79.

Substance ALSPRVSSLGNFT yielded an amyloid nucleation score of -0.691 ± 0.53.

Consider FNNPKCHSWLDRMVWLMWLA, for which the amyloid nucleation score came to 0.343 ± 0.61.

Regarding VKYGDSRLADAWNFVSNK, the amyloid nucleation score was -0.476 ± 0.3.

MRAFGVNGTVQRWWGSCSRF yielded an amyloid nucleation score of 0.766 ± 0.46.

As to DLTVWSTIFDSMSTCEHRGG, the amyloid nucleation score is 0.257 ± 0.42.

As for FIFHSIGRSKISYKS, the amyloid nucleation score was -0.229 ± 0.59.

In turn, NPSNKCLSEPWQDHLLGAWR showed an amyloid nucleation score of 0.758 ± 0.67.

IAYNDSYMVKYCVREVLMDE gave an amyloid nucleation score of 4.29 ± 0.13.

The substance IQNISLGVVGVMWNPHTCVV yielded an amyloid nucleation score of -0.708 ± 0.66.

Substance SFKRYRRYRSKRVRRIGRGR gave an amyloid nucleation score of 0.677 ± 0.52.

For RLARWPEPLIRCFAS, the amyloid nucleation score is 0.594 ± 0.55.

In turn, MNFCYLCTTWWSYYFQ came in with an amyloid nucleation score of -0.38 ± 0.32.

As for QVARLLSHAMWLVGKTL, the amyloid nucleation score result was “inactive”.

For the substance FWIDLGMTLGTCRSFLSLRS, the amyloid nucleation score was found to be 0.217 ± 0.6.

YEFTYLWNNKVLLGLCCYGG came in with an amyloid nucleation score of 4 ± 0.13.

Substance SVSEWRQVILIIGVIVK registered an amyloid nucleation score of -0.278 ± 0.51.

Substance RGYQTSGLT returned an amyloid nucleation score of -0.756 ± 2.4.

Consider HVHNYNFIFAVWIHP, for which the amyloid nucleation score is 5.87 ± 0.062.

For FAYFSVNCL, the amyloid nucleation score result is “inactive”.

Consider ILYVNNFIFLH, for which the amyloid nucleation score was found to be 7.59 ± 0.056.

With FVLHCCRLRGHTSSSHWLGA, the amyloid nucleation score came out at 0.245 ± 0.43.

For RDFYCFWLG, the amyloid nucleation score stood at 4.05 ± 0.08.

For the substance VAACLKNMIESVQSVKYIWR, the amyloid nucleation score is 0.837 ± 0.93.

For KSSYLFMTSWPYWVRGMSYA, the amyloid nucleation score was found to be 0.01 ± 0.46.

As to LMRHYSHMFYIRHAVLLTNP, the amyloid nucleation score was determined as 0.255 ± 0.36.

With YLVPELYEMSNS, the amyloid nucleation score is 1.38 ± 0.79.

With YVSCFRG, the amyloid nucleation score came out at 0.925 ± 0.3.

Take YMASEG: the amyloid nucleation score result was “inactive”.

In turn, CDERNNAFLGVFGSS gave an amyloid nucleation score of -0.288 ± 0.47.

With FILIYTAPFIGGLVGLGDGH, the amyloid nucleation score entry was “inactive”.

The substance YSLMLFESVSSGFKCSLRFA returned an amyloid nucleation score of -0.65 ± 0.42.

For the substance IDMGSGTNFSTCKCATLIMI, the amyloid nucleation score entry was “inactive”.

Take SWVWCYWILSWIREFLLRQG: the amyloid nucleation score is 0.447 ± 0.42.

As for RRIFRYSMNNLNVFVYNRFP, the amyloid nucleation score is -0.277 ± 0.51.

The substance WDMAFSVALGLRYMRCGLKL returned an amyloid nucleation score of -0.286 ± 0.35.

For LCGDAPREDYSHGYVLNQVG, the amyloid nucleation score worked out at 0.352 ± 0.78.

In turn, GILDTLKVEVLGSVVHS came in with an amyloid nucleation score of 1.01 ± 0.59.

TWGRVFSLMAPFISRPCFWG registered an amyloid nucleation score of -0.385 ± 0.34.

The substance SKLFLGGLPCTQYWPRMCMV returned an amyloid nucleation score of -0.356 ± 0.64.

WIILFWHYFSKYFQPLIGRS: the amyloid nucleation score result was “inactive”.

In turn, ITWFVYGPLGWMWGFLRPTA yielded an amyloid nucleation score of 0.019 ± 0.62.

Substance RWLDYYADNARHVSQTLRRR gave an amyloid nucleation score of -0.575 ± 0.64.

KAMCYKMSFCNYDSRVYTED came in with an amyloid nucleation score of 4.53 ± 0.06.

In turn, IFSLCSVLSSNIEECPS showed an amyloid nucleation score of -0.257 ± 0.8.

NMHNQVAFISCSFILFDVIN registered an amyloid nucleation score of 6.95 ± 0.07.

With NVWNVFWLNN, the amyloid nucleation score entry was “inactive”.

In the case of LFTCVQFIMGVDDRWKRARS, the amyloid nucleation score is 2.19 ± 0.26.

AMWYTRRMQVENVKTVLSLM returned an amyloid nucleation score of -0.027 ± 0.34.

For the substance DSGLSAMGMELRCYEYLVSW, the amyloid nucleation score came to 0.886 ± 1.1.

For YLLSCVGIASLGFKVFL, the amyloid nucleation score was -0.718 ± 0.7.

GKENSVTGHRGYSDVAVGMQ came in with an amyloid nucleation score of 0.286 ± 1.4.

As for FNKTSMVSGNQLRVLVLVNI, the amyloid nucleation score is 1.08 ± 0.59.

For HDNISLG, the amyloid nucleation score amounted to 3.39 ± 0.12.

Take HVNSRRVLSHFVFDCARIGT: the amyloid nucleation score worked out at 0.592 ± 0.69.

DYDRTSFFEDSFVTD had an amyloid nucleation score of -0.7 ± 1.1.

YIMSGRFTNY displayed an amyloid nucleation score of 2.13 ± 0.28.

Substance IFYSLQLVTARSTEVMGDTP displayed an amyloid nucleation score of 1.1 ± 0.88.

Regarding KLKGG, the amyloid nucleation score was -0.27 ± 0.3.

The substance CFNMFT gave an amyloid nucleation score of -0.607 ± 0.76.

Substance WSGFFFAGLWVVLCVEGGAC had an amyloid nucleation score of 0.192 ± 0.88.

Substance MRYIKSVVSSVCSYNLPLRA gave an amyloid nucleation score of 0.525 ± 0.44.

As to SYRIMPLMCILNCLFNCIYI, the amyloid nucleation score was 4.8 ± 0.059.

SWSSVQSAVKGHPLGGNTGR returned an amyloid nucleation score of -0.72 ± 0.74.

Substance SDVSYLVNSSNVGLWHL registered an amyloid nucleation score of 0.467 ± 0.4.

The substance DGSVYTPVIVY came in with an amyloid nucleation score of 0.207 ± 0.29.

YKLPAAIDRMIVVQCNRPSI registered an amyloid nucleation score of -0.246 ± 0.61.

YFDWLGCLLTWQRKYVQT yielded an amyloid nucleation score of -0.048 ± 0.93.

With RVWMGFDWIEDESRLDSTM, the amyloid nucleation score stood at 0.21 ± 0.82.

GVGDTNCSEL displayed an amyloid nucleation score of 0.178 ± 0.33.

For LINMYSMDMTTDHAPAYKLD, the amyloid nucleation score is -0.302 ± 0.47.

HVCEGEVVR: the amyloid nucleation score was -0.135 ± 0.37.

In the case of HCTRINVHFYNIYTVLVSFS, the amyloid nucleation score is 5.33 ± 0.073.

As to ELLYGWGIP, the amyloid nucleation score was -0.723 ± 0.76.

Consider FRSLMLLDFTYHVVSGLRYK, for which the amyloid nucleation score was -0.609 ± 1.9.

Substance QPLLTQQK gave an amyloid nucleation score of 0.086 ± 0.28.

GRQGYMAYFVMALLLCIFTH displayed an amyloid nucleation score of 0.128 ± 0.48.

In turn, SVNRLTLKPSYAKYRVYSGH gave an amyloid nucleation score of 0.46 ± 0.68.

In turn, HCWFRSWPWTISK yielded an amyloid nucleation score of -0.913 ± 1.5.

Turning to DNMSVLYDTTLVFRWIWVEP, the amyloid nucleation score result was “inactive”.

The substance KLFSWADHGGEGFEWMQLTT came in with an amyloid nucleation score of -0.026 ± 0.3.

Substance IGFHSMDFEQYFCYFSVKTK displayed an amyloid nucleation score of 0.616 ± 0.75.

DSCRWGFLRVRVLGFSSVWY came in with an amyloid nucleation score of -0.28 ± 0.49.

MDWYIVYRPAYTLLCRIHVR gave an amyloid nucleation score of 1.16 ± 0.39.

As for ACPVGTRFTVATTFRRMLCE, the amyloid nucleation score is 0.312 ± 0.47.

In the case of KWYNTPNSDWSV, the amyloid nucleation score is -0.983 ± 1.7.

On to DLYEAMSRNLADYRAVWGLS, for which the amyloid nucleation score entry is “inactive”.

KKFRVGVDLSRCTLGLENYK returned an amyloid nucleation score of 4.3 ± 0.059.

Regarding GATIIKSFLDRNSTTWLSLV, the amyloid nucleation score was -0.451 ± 0.63.

Take VLVSSCSTGDLVSSDPHSSV: the amyloid nucleation score result is “inactive”.

In the case of NSYWLRCILPM, the amyloid nucleation score was -0.065 ± 0.3.

The substance LVEVNWI displayed an amyloid nucleation score of -0.412 ± 0.47.

With CDLFSRACGSAMDTYNKSHI, the amyloid nucleation score is -1.01 ± 0.9.

In turn, VILTYGTVRY yielded an amyloid nucleation score of 0.38 ± 0.59.
